This passage reports protein stability index results from the supplement of paper PMC10567573.

B1: TMEM192 (parent)
chain: LWILHLLLECYIQYHHSKIRNRGY
B2: RAD51 (parent)
chain: APKKELINIKGISEAKADKILAEA
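Further: lentivirally expressed fusions sorted by FACS into six bins by GFP to DsRed ratio, PSI derived from sequencing read proportions per bin multiplied by bin number.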

The variants in one data set derive from B1. Put plainly: protein stability index of a GFP-peptide fusion (GPS, HEK-293T) (PSI 1-6); higher = more stable. The note with it: c terminus: a fixed tail appended.
As for LWILHLRLECYIQYHHSKIRNRGY [L7R], the protein stability index worked out at 1.89. Still for that read-out and setting: as for LWILHLYLECYIQYHHSKIRNRGY [L7Y], the figure is 2.48. Regarding LWILHLHLECYIQYHHSKIRNRGY [L7H], the protein stability index is 2.78.

Turning to LWILHLCLECYIQYHHSKIRNRGY [L7C], the protein stability index came out at 2.32.

For LWILHLNLECYIQYHHSKIRNRGY [L7N], the protein stability index was 2.

LWILHLMLECYIQYHHSKIRNRGY [L7M]: the protein stability index was 2.51. Still for that read-out and setting: the result for LWILHLQLECYIQYHHSKIRNRGY [L7Q] reads 2.34; that for LWILHLPLECYIQYHHSKIRNRGY [L7P], 2.33; that for LWILHLILECYIQYHHSKIRNRGY [L7I], 3.46.

Take LWISHLLLECYIQYHHSKIRNRGY [L4S]: the protein stability index stood at 3.7.

Turning to LWITHLLLECYIQYHHSKIRNRGY [L4T], the protein stability index amounted to 1.17.

For LWIIHLLLECYIQYHHSKIRNRGY [L4I], the protein stability index was 2.29. Still for that read-out and setting: the result for LWIMHLLLECYIQYHHSKIRNRGY [L4M] reads 2.39.

For the variant LWIYHLLLECYIQYHHSKIRNRGY [L4Y], the protein stability index came out at 2.68. Turning to LWIRHLLLECYIQYHHSKIRNRGY [L4R], the protein stability index turned out to be 3.42. Take LWIFHLLLECYIQYHHSKIRNRGY [L4F]: the protein stability index worked out at 1.69. Still for that read-out and setting: as for LWIPHLLLECYIQYHHSKIRNRGY [L4P], the figure is 2.85.

Turning to LWICHLLLECYIQYHHSKIRNRGY [L4C], the protein stability index was 2.96.

For the variant LWIAHLLLECYIQYHHSKIRNRGY [L4A], the protein stability index is 4.26. Same read-out and setting: as for LWIHHLLLECYIQYHHSKIRNRGY [L4H], the figure is 3.85.

For the variant LWIVHLLLECYIQYHHSKIRNRGY [L4V], the protein stability index was 1.83.

With LWIKHLLLECYIQYHHSKIRNRGY [L4K], the protein stability index turned out to be 2.51. Still for that read-out and setting: as for LWILHLLHECYIQYHHSKIRNRGY [L8H], the figure is 3.75; as for LWILHLLMECYIQYHHSKIRNRGY [L8M], 2.01; as for LWILHLLSECYIQYHHSKIRNRGY [L8S], 4.08. The same measure, in the same setting: as for LWILHLLDECYIQYHHSKIRNRGY [L8D], the figure is 4.78. Take LWILHLLTECYIQYHHSKIRNRGY [L8T]: the protein stability index came out at 2.86. The same measure, in the same setting: as for LWILHLLWECYIQYHHSKIRNRGY [L8W], the figure is 2.98.

Consider LWILHLLYECYIQYHHSKIRNRGY [L8Y], for which the protein stability index worked out at 2.71. On the same count and under the same terms, as for LWILHLLRECYIQYHHSKIRNRGY [L8R], the figure is 2.96. Same read-out and setting: the result for LWILHLLFECYIQYHHSKIRNRGY [L8F] reads 2.57.

With LWILHLLIECYIQYHHSKIRNRGY [L8I], the protein stability index was 3.28. On to LWILHLLPECYIQYHHSKIRNRGY [L8P], for which the protein stability index was 2.11. On to LWILHLLKECYIQYHHSKIRNRGY [L8K], for which the protein stability index was 2.54. Still for that read-out and setting: the result for LSILHLLLECYIQYHHSKIRNRGY [W2S] reads 1.58.

For LNILHLLLECYIQYHHSKIRNRGY [W2N], the protein stability index amounted to 2.28. On the same count and under the same terms, the result for LEILHLLLECYIQYHHSKIRNRGY [W2E] reads 1.73; that for LYILHLLLECYIQYHHSKIRNRGY [W2Y], 1.25.

For LAILHLLLECYIQYHHSKIRNRGY [W2A], the protein stability index stood at 2.2. With LQILHLLLECYIQYHHSKIRNRGY [W2Q], the protein stability index is 2.66. Same read-out and setting: as for LMILHLLLECYIQYHHSKIRNRGY [W2M], the figure is 2.41; as for LKILHLLLECYIQYHHSKIRNRGY [W2K], 1.94; as for LVILHLLLECYIQYHHSKIRNRGY [W2V], 3.84. Same read-out and setting: as for LDILHLLLECYIQYHHSKIRNRGY [W2D], the figure is 1.88; as for LPILHLLLECYIQYHHSKIRNRGY [W2P], 1.23.

As for LFILHLLLECYIQYHHSKIRNRGY [W2F], the protein stability index stood at 3.58. Turning to LRILHLLLECYIQYHHSKIRNRGY [W2R], the protein stability index was 1.63. In the case of LHILHLLLECYIQYHHSKIRNRGY [W2H], the protein stability index stood at 2.14. On the same count and under the same terms, as for LTILHLLLECYIQYHHSKIRNRGY [W2T], the figure is 1.86. Take LGILHLLLECYIQYHHSKIRNRGY [W2G]: the protein stability index worked out at 2.73.

Variants of B2 are the subject of another data set. Described as above. Conditions: c terminus: a fixed tail appended.
With APKKELINIKGISEAKADKILAWA [E23W], the protein stability index was 3.02. The same measure, in the same setting: as for APKKELINIKGISEAKADKILACA [E23C], the figure is 3.38. With APKKELINIKGISEAKADKILAMA [E23M], the protein stability index was 3.72. On the same count and under the same terms, as for APKKELINIKGISEAKADKILAYA [E23Y], the figure is 3.37. As for APKKELINIKGISEAKADKILADA [E23D], the protein stability index is 4.96. Regarding APKKELINIKGISEAKADKILAFA [E23F], the protein stability index was determined as 3.46. In the case of APKKELINIKGISEAKADKILAHA [E23H], the protein stability index was found to be 3.85. Turning to APKKELINIKGISEAKADKILAAA [E23A], the protein stability index was found to be 4.18. Take APKKELINIKGISEAKADKILAPA [E23P]: the protein stability index was 4.34.

As for APKKELINIKGISEAKADKILAKA [E23K], the protein stability index is 4.46. Same read-out and setting: the result for APKKELINIKGISEAKADKILAGA [E23G] reads 4.1. For APKKELINIKGISEAKADKILALA [E23L], the protein stability index stood at 3.43. As for APKKELINIKGISEAKADKILAVA [E23V], the protein stability index turned out to be 3.73. As to APKKELINIKGISEAKADKILANA [E23N], the protein stability index stood at 4.58. Take APKKELINIKGISEAKADKILASA [E23S]: the protein stability index was determined as 3.79.

With APKKELINIKGISEAKADKILAQA [E23Q], the protein stability index was determined as 4.26. Still for that read-out and setting: the result for APKKELINIKGISEAKADKILAIA [E23I] reads 3.36; that for APKKELINIKGISEAKADKILARA [E23R], 3.85. Same read-out and setting: as for APKKELINIKGISEAKADKILATA [E23T], the figure is 4.13; as for APKKELINIKGISEAKADKILSEA [A22S], 4.61. For APKKELINIKGISEAKADKILVEA [A22V], the protein stability index was 4.79. For the variant APKKELINIKGISEAKADKILYEA [A22Y], the protein stability index was determined as 3.8. The same measure, in the same setting: the result for APKKELINIKGISEAKADKILTEA [A22T] reads 3.9; that for APKKELINIKGISEAKADKILWEA [A22W], 3.58; that for APKKELINIKGISEAKADKILREA [A22R], 4.84. The same measure, in the same setting: as for APKKELINIKGISEAKADKILAEQ [A24Q], the figure is 5.1.

For APKKELINIKGISEAKADKILAEH [A24H], the protein stability index amounted to 4.76. The same measure, in the same setting: the result for APKKELINIKGISEAKADKILAER [A24R] reads 4.83; that for APKKELINIKGISEAKADKILAEM [A24M], 4.34. For the variant APKKELINIKGISEAKADKILAEW [A24W], the protein stability index came out at 3.97. The same measure, in the same setting: as for APKKELINIKGISEAKADKILAET [A24T], the figure is 5.36.

In the case of APKKELINIKGISEAKADKILAEF [A24F], the protein stability index was 3.53. Same read-out and setting: as for APKKELINIKGISEAKADKILAEE [A24E], the figure is 3.9; as for APKKELINIKGISEAKADKILAES [A24S], 4.75; as for APKKELINIKGISEAKADKILAEC [A24C], 4.51. As for APKKELINIKGISEAKADKILAEI [A24I], the protein stability index is 3.61.

Consider APKKELINIKGISEAKADKILAEY [A24Y], for which the protein stability index was 3.76. Still for that read-out and setting: as for APKKELINIKGISEAKADKILAED [A24D], the figure is 4.83; as for APKKELINIKGISEAKADKILAEL [A24L], 4.4; as for APKKELINIKGISEAKADKILAEG [A24G], 4.9. Turning to APKKELINIKGISEAKADKILAEP [A24P], the protein stability index came to 4.91. On the same count and under the same terms, the result for APKKELINIKGISEAKADKILAEN [A24N] reads 4.96; that for APKKELINIKGISEAKADKILAEK [A24K], 5.26; that for APKKELINIKGISEAKADKILAEV [A24V], 4.26.
